1 molecule from patent US7094581B2, “Hyaluronan synthases and methods of making and using same” (The Board of Regents of the University of Oklahoma, priority 1998, dated 2006) can be followed below.

In this data set the test system is spHAS. The data set is described as follows: Kinetic analysis of Cys-mutants of spHAS, normalized to spHAS protein. Set-up: Vmax: unit not given here. Format: biochemical, Streptococcus pyogenes. On the procedure: Kinetic analyses of the single and multiple spHAS Cys-mutants were performed to investigate the possibility that multiple Cys residues are critical in a coordinated way for enzyme activity. […] The spHAS(C225S) and spHAS(C280A) mutants had the most reduced activities with Vmax values at 30–50% of wildtype. The spHAS(C261,280A) and Cys-null mutant had 50–75% of the wildtype activity.
Membranes were isolated from E. coli SURE strains expressing mutant or wildtype spHAS, fractionated by SDS-PAGE according to the procedure of Laemmli (1970) and the proteins were electrotransferred to nitrocellulose as described by Towbin et al. (1979) with minor modifications (Tlapak-Simmons, et al., 1998). Western analysis was performed by incubating these blots for 1 h at room temperature with a biotinylated anti-His5 monoclonal antibody, as the primary antibody, then washing and incubating with 3 μg/ml ^125I-streptavidin, prepared as described hereinabove. After 1 h at room temperature, the blots were washed, dried and exposed to a Phosphoscreen for 1 to 72 h. The screens were analyzed using a Molecular Dynamics Phosphoimager and integrated density values were obtained for each spHAS band. Integrated density values were also obtained for increasing amounts of affinity-purified spHAS (Tlapak-Simmons et al., 1999a), which was used as an internal standard in the same blot to generate a standard curve. Dilutions of membrane samples were made as necessary to ensure that all estimates of HAS quantity were in the linear range of the assay. Those membrane samples giving a linear response with increasing protein were then compared to the standard curve to calculate the amount of spHAS present per μl membrane suspension. These values were then used to normalize the kinetic results obtained using membranes from the various spHAS mutants.
E. coli SURE cells, previously transformed with plasmids containing wildtype or mutant spHAS genes, were grown to an A600 of ˜1.2 and induced with 1 mM isopropyl thio-β-D-galactoside for three h. Cells were harvested and membranes were prepared as described previously (Tlapak-Simmons, et al., 1999a). The activities of mutant spHAS variants were assessed by measuring their Vmax and Km values in isolated membranes, normalized as described above for the amount of enzyme expressed. The Km values were determined using a descending paper chromatography assay (Tlapak-Simmons, et al., 1999b), holding one UDP-sugar substrate constant and varying the other from 0.01 to 4 mM. Data were analyzed by linear regression using Haynes-Wolf plots for UDP-GIcUA or Hill plots for UDP-GIcNAc.

Read-outs that look alike come from different tables or passages of the source.

B1: Wildtype: wildtype Streptococcus pyogenes hyaluronan synthase (spHAS-His6), SEQ ID NO:4 (protein)
chain: MPIFKKTLIVLSFIFLISILIYLNMYLFGTSTVGIYGVILITYLVIKLGLSFLYEPFKGNPHDYKVAAVIPSYNEDAESLLETLKSVLAQTYPLSEIYIVDDGSSNTDAIQLIEEYVNREVDICRNVIVHRSLVNKGKRHAQAWAFERSDADVFLTVDSDTYIYPNALEELLKSFNDETVYAATGHLNARNRQTNLLTRLTDIRYDNAFGVERAAQSLTGNILVCSGPLSIYRREVIIPNLERYKNQTFLGLPVSIGDDRCLTNYAIDLGRTVYQSTARCDTDVPFQLKSYLKQQNRWNKSFFRESIISVKKILSNPIVALWTIFEVVMFMMLIVAIGNLLFNQAIQLDLIKLFAFLSIIFIVALCRNVHYMVKHPASFLLSPLYGILHLFVLQPLKLYSLCTIKNTEWGTRKKVTIFK
modifications: His6 tag; Streptococcus pyogenes
In the case of B1, the “Hill number” value (UDP-GlcNAc utilization) was found to be 1.8 ± 0.1. Also, the Km (at 0.5 mM UDP-GlcUA, read-out: Km UDP-GlcNAc) was determined as 398 ± 112 µM and the Km (at 1.5 mM UDP-GlcNAc, read-out: Km UDP-GlcUA) was found to be 50.4 ± 10.8 µM. Moreover, the Vmax (both substrates incorporated per hour per pmol spHAS) is on record as 791 ± 215.

By Km is commonly meant the substrate concentration at which the rate is half of its maximum.
